In article PMC10179125, “Populus euphratica GLABRA3 Binds PLDδ Promoters to Enhance Salt Tolerance”:

T1: PeGLABRA3 (Populus euphratica, UniProt A0AAJ6UG00 1-628)
T1 sequence: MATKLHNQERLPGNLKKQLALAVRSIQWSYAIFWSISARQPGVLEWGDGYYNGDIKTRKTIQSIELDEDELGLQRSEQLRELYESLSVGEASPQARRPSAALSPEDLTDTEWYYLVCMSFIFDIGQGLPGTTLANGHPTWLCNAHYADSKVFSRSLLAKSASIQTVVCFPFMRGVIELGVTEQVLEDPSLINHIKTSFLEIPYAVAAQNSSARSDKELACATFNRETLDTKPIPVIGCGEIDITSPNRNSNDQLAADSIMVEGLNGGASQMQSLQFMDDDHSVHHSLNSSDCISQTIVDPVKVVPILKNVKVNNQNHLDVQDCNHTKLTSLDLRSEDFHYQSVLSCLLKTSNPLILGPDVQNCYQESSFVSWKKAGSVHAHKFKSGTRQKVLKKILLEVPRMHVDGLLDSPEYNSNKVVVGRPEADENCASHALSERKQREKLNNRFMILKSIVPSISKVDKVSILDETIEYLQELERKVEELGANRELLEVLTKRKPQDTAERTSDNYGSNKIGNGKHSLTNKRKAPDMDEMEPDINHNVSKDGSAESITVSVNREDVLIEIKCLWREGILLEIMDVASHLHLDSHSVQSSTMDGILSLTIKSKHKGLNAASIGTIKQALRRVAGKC


How the values were obtained:
PeGLABRA3 [1] = target: T1, PeGLABRA3; assay: EMSA; EMSA on 6% polyacrylamide gel, biotin probes, cold probe 10x; binding buffer, pH, salt and temperature not stated; conditions: protein: recombinant; tags: C-terminal His (pET28a); chain copies: 2; label: 3' biotin; blunt
PeGLABRA3 [2] = target: T1, PeGLABRA3; assay: competition; 10x unlabeled probe vs biotin N1; EMSA on 6% polyacrylamide gel, biotin probes, cold probe 10x; binding buffer, pH, salt and temperature not stated; conditions: protein: recombinant; tags: C-terminal His (pET28a); chain copies: 2; blunt

| Binder | binding result (PeGLABRA3 [1]) | binding result (PeGLABRA3 [2]) |
| --- | --- | --- |
| PePLDδ promoter G-box probe (dsDNA) DNA 1: CGCTGATCCGGGTAACTGAAATCAGCTGCTGAGAGATGGAAGAGGAGAAT DNA 2: ATTCTCCTCTTCCATCTCTCAGCAGCTGATTTCAGTTACCCGGATCAGCG | binds |  |
| PePLDδ promoter G-box cold probe (dsDNA) DNA 1: CGCTGATCCGGGTAACTGAAATCAGCTGCTGAGAGATGGAAGAGGAGAAT DNA 2: ATTCTCCTCTTCCATCTCTCAGCAGCTGATTTCAGTTACCCGGATCAGCG |  | binds |
| AtPLDδ promoter G-box probe (dsDNA) DNA 1: AACTCCCATCACGTCGTCCCTCCACCTGTCCTCTCTTCTCCTTCCTTGCT DNA 2: AGCAAGGAAGGAGAAGAGAGGACAGGTGGAGGGACGACGTGATGGGAGTT | binds |  |
